Laboratory results from the supplement of paper PMC6379048.

Assays:
Assay in all cases: EC50 of free RNA motif oligo competing protein binding to immobilised probe
[1] = target: T1, TIA1 (UniProt P31483)
T1 sequence: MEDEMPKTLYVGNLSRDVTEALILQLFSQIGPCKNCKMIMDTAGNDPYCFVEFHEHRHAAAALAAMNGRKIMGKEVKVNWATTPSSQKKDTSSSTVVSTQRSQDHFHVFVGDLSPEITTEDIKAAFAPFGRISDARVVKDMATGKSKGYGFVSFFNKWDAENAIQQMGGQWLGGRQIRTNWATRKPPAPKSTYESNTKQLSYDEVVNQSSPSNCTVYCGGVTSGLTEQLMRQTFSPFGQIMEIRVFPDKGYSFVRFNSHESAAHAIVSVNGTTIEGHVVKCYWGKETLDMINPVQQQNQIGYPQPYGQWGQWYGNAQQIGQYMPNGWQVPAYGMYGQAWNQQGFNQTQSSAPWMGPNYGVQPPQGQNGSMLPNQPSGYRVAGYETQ
Outline: (§1)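 Over three biological replicates and two independent experiments, proteins captured on NHS-Sepharose beads carrying 5′-amino-C6 RNA oligos were quantified by label-free LC-MS/MS and normalised to the control. Capture lasted 30 min at 4°C and followed a 1 h pre-incubation at 4°C of HEK293-FT lysate (2.5 mg protein/well) with the same oligos in free form (0 nM to 30 μM). EC50 was taken from a four-parameter log-logistic fit, and Kd was EC50 corrected by a protein-dependent depletion factor.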

[2] = target: T2, SF3B3 (UniProt Q15393)
T2 sequence: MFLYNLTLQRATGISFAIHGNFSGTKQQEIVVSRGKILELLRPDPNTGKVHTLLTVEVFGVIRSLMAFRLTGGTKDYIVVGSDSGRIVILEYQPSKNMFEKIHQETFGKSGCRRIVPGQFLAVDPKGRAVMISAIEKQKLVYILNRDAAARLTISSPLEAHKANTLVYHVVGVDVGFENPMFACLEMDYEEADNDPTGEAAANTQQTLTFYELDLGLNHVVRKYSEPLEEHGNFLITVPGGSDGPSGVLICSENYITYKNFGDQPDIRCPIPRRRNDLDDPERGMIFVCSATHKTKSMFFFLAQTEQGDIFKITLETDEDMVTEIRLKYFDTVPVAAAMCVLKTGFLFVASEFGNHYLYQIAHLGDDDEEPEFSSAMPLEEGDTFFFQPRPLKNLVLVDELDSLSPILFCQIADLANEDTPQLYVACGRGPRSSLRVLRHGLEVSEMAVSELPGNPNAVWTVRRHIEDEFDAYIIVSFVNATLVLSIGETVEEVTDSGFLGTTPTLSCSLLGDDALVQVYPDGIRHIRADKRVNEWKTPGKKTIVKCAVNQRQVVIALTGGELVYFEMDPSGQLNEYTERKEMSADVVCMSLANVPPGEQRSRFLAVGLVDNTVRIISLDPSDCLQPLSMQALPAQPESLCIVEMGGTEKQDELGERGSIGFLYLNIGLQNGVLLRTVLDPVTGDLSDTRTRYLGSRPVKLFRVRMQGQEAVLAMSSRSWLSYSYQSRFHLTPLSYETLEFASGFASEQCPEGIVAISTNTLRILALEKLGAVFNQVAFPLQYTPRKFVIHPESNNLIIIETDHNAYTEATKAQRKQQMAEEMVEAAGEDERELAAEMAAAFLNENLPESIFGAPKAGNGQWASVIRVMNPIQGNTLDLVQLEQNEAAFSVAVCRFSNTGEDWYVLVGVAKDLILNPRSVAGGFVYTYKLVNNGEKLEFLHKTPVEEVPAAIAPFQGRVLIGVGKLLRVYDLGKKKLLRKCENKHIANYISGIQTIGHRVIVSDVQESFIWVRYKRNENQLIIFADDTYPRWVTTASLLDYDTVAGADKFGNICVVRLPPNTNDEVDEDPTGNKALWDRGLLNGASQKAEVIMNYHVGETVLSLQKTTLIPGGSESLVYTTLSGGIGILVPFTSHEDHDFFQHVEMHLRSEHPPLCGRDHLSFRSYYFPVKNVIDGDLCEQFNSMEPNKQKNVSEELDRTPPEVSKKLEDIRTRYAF
Outline: as §1

[3] = target: RPS18 (UniProt P62269)
Outline: as §1

[4] = target: GNB2L1 (UniProt P63244)
Outline: as §1

[5] = target: MRPL38 (UniProt Q96DV4)
Outline: as §1

[6] = target: MRPL17 (UniProt Q9NRX2)
Outline: as §1

[7] = target: RPS25 (UniProt P62851)
Outline: as §1

[8] = target: MRPL39 (UniProt Q9NYK5)
Outline: as §1

[9] = target: MRPS28 (UniProt Q9Y2Q9)
Outline: as §1

AAUAAA
EC50 [1]: 2110 nM | EC50 [2]: 4880 nM

CUGUCCU
EC50 [3]: 89.4 nM | EC50 [4]: 2980 nM | EC50 [5]: 119 nM | EC50 [6]: 51.9 nM | EC50 [7]: 72.5 nM | EC50 [8]: 248 nM

UAUUUAU
EC50 [9]: 56.1 nM
